Experimental data reported in patent US6548060 (dated 2003).
Blank lines part the entries; values can stand above or below the molecule they belong to.

How the values were obtained:
[1] = target: ASK1 (apoptosis signal-regulating kinase), full-length (UniProt Q99683); test: cell-based or functional assay
[2] = target: T1, ASK1 (apoptosis signal-regulating kinase), full-length, Q99683
T1 chain: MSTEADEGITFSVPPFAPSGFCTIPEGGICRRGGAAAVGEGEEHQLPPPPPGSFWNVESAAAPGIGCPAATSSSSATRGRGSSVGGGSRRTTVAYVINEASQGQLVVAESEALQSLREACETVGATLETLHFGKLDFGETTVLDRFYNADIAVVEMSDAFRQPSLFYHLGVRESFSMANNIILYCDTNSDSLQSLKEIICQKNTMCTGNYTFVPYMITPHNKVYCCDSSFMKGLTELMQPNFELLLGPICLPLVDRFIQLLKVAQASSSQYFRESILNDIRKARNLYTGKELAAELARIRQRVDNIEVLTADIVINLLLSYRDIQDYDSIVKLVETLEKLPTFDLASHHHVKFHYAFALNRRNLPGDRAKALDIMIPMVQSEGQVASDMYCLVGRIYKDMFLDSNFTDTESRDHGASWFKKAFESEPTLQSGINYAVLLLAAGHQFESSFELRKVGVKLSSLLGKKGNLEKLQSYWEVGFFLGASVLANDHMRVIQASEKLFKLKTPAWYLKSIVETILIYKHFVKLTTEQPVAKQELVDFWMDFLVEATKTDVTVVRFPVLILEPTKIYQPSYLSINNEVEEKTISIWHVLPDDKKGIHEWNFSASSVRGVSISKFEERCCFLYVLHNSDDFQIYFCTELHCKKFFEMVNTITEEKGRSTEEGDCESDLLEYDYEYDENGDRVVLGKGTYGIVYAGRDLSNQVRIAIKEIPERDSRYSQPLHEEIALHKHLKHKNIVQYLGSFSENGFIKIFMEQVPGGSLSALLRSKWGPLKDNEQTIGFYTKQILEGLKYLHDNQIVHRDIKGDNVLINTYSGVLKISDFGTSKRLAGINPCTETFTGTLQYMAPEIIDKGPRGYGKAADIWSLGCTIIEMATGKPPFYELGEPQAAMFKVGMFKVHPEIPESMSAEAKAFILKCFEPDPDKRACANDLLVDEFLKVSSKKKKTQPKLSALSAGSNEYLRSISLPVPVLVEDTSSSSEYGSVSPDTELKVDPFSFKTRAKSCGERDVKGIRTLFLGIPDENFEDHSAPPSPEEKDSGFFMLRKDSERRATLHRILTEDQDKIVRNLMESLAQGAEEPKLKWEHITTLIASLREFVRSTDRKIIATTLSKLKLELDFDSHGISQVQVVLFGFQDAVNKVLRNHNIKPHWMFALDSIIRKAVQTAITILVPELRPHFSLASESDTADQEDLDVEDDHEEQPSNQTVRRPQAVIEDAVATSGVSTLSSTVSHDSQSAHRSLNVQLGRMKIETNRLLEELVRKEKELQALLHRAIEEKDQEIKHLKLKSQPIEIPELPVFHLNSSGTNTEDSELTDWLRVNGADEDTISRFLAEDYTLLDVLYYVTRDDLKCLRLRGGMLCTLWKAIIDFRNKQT

[3] = target: T2, N-terminal 236 aa extension of human glutaminyl-tRNA synthetase, P47897
T2 chain: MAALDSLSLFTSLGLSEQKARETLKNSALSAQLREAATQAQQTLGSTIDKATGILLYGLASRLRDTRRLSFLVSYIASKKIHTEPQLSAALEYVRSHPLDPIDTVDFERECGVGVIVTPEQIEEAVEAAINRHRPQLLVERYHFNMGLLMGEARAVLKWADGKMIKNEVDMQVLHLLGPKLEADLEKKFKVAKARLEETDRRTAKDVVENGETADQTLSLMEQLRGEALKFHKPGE

[4] = target: constitutive active mutant of Daxx, C-terminal 242 aa, Q9UER7
Sequence of constitutive active mutant of Daxx, C-terminal 242 aa, Q9UER7 (Q9UER7 whole entry, looked up, change not shown): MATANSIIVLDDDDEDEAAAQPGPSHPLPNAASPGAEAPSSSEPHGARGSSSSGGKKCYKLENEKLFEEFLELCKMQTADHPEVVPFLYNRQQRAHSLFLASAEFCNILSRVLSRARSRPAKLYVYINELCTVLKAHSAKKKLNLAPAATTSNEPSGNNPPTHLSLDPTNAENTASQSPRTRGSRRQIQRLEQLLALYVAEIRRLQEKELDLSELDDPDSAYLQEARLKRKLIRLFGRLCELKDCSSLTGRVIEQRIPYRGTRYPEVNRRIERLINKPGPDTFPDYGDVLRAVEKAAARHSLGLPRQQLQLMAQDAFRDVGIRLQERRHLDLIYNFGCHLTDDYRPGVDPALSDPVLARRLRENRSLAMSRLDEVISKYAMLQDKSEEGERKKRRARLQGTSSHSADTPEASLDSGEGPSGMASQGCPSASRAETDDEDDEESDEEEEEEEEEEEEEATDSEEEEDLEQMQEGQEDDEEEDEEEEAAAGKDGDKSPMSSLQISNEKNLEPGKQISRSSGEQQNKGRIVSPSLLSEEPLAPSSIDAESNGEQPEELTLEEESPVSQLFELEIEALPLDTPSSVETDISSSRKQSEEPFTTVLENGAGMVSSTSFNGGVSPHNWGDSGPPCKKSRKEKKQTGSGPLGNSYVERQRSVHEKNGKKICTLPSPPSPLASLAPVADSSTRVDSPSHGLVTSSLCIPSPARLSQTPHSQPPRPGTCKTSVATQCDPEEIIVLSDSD

apoptotic cells (HeLa, beta-galactosidase co-transfection, apoptotic morphology) [1]: 11%
Molecule: constitutive active mutant of Daxx, C-terminal 242 aa (from UniProt Q9UER7 499-740)

B1: C-terminal 539 aa catalytic domain of human glutaminyl-tRNA synthetase (protein)
chain: NYKTPGYVVTPHTMNLLKQHLEITGGQVRTRFPPEPNGILHIGHAKAINFNFGYAKANNGICFLRFDDTNPEKEEAKFFTAICDMVAWLGYTPYKVTYASDYFDQLYAWAVELIRRGLAYVCHQRGEELKGHNTLPSPWRDRPMEESLLLFEAMRKGKFSEGEATLRMKLVMEDGKMDPVAYRVKYTPHHRTGDKWCIYPTYDYTHCLCDSIEHITHSLCTKEFQARRSSYFWLCNALDVYCPVQWEYGRLNLHYAVVSKRKILQLVATGAVRDWDDPRLFTLTALRRRGFPPEAINNFCARVGVTVAQTTMEPHLLEACVRDVLNDTAPRAMAVLESLRVIITNFPAAKSLDIQVPNFPADETKGFHQVPFAPIVFIERTDFKEEPEPGFKRLAWGQPVGLRHTGYVIELQHVVKGPSGCVESLEVTCRRADAGEKPKAFIHWVSQPLMCEVRLYERLFQHKNPEDPTEVPGGFLSDLNLASLHVVDAALVDCSVALAKPFDKFQFERLGYFSVDPDSHQGKLVFNRTVTLKEDPGKV
kinase activity of ASK1 (MBP phosphorylation, immunocomplex kinase assay) [2]: The ASK1 activity was inhibited by the expression of QRS-F and -C but not of QRS -N

B2: human glutaminyl-tRNA synthetase, full-length (protein)
chain: MAALDSLSLFTSLGLSEQKARETLKNSALSAQLREAATQAQQTLGSTIDKATGILLYGLASRLRDTRRLSFLVSYIASKKIHTEPQLSAALEYVRSHPLDPIDTVDFERECGVGVIVTPEQIEEAVEAAINRHRPQLLVERYHFNMGLLMGEARAVLKWADGKMIKNEVDMQVLHLLGPKLEADLEKKFKVAKARLEETDRRTAKDVVENGETADQTLSLMEQLRGEALKFHKPGENYKTPGYVVTPHTMNLLKQHLEITGGQVRTRFPPEPNGILHIGHAKAINFNFGYAKANNGICFLRFDDTNPEKEEAKFFTAICDMVAWLGYTPYKVTYASDYFDQLYAWAVELIRRGLAYVCHQRGEELKGHNTLPSPWRDRPMEESLLLFEAMRKGKFSEGEATLRMKLVMEDGKMDPVAYRVKYTPHHRTGDKWCIYPTYDYTHCLCDSIEHITHSLCTKEFQARRSSYFWLCNALDVYCPVQWEYGRLNLHYAVVSKRKILQLVATGAVRDWDDPRLFTLTALRRRGFPPEAINNFCARVGVTVAQTTMEPHLLEACVRDVLNDTAPRAMAVLESLRVIITNFPAAKSLDIQVPNFPADETKGFHQVPFAPIVFIERTDFKEEPEPGFKRLAWGQPVGLRHTGYVIELQHVVKGPSGCVESLEVTCRRADAGEKPKAFIHWVSQPLMCEVRLYERLFQHKNPEDPTEVPGGFLSDLNLASLHVVDAALVDCSVALAKPFDKFQFERLGYFSVDPDSHQGKLVFNRTVTLKEDPGKV
ASK1 kinase activity enhanced by Daxx-CA (GST-SEK1 as substrate) [2]: QRS inhibited the ASK1 activity enhanced by Daxx | kinase activity of ASK1 (MBP phosphorylation, immunocomplex kinase assay) [2]: The ASK1 activity was inhibited by the expression of QRS-F and -C but not of QRS -N

B3: ASK1 (apoptosis signal-regulating kinase), full-length (protein)
chain: T1 chain
kinase activity of ASK1 (MBP phosphorylation, immunocomplex kinase assay) [3]: The ASK1 activity was inhibited by the expression of QRS-F and -C but not of QRS -N | ASK1 kinase activity (GST-SEK1 as substrate) [4]: The active mutant of Daxx (Daxx-CA) activated ASK1
